Reference: IntAct's records for PubMed 24510189

B1: mRNA-decapping enzyme 1A (Homo sapiens), Q9NPI6 (parent)
chain: MEALSRAGQEMSLAALKQHDPYITSIADLTGQVALYTFCPKANQWEKTDIEGTLFVYRRSASPYHGFTIVNRLNMHNLVEPVNKDLEFQLHEPFLLYRNASLSIYSIWFYDKNDCHRIAKLMADVVEEETRRSQQAARDKQSPSQANGCSDHRPIDILEMLSRAKDEYERNQMGDSNISSPGLQPSTQLSNLGSTETLEEMPSGSQDKSAPSGHKHLTVEELFGTSLPKEQPAVVGLDSEEMERLPGDASQKEPNSFLPFPFEQLGGAPQSETLGVPSAAHHSVQPEITTPVLITPASITQSNEKHAPTYTIPLSPVLSPTLPAEAPTAQVPPSLPRNSTMMQAVKTTPRQRSPLLNQPVPELSHASLIANQSPFRAPLNVTNTAGTSLPSVDLLQKLRLTPQHDQIQTQPLGKGAMVASFSPAAGQLATPESFIEPPSKTAAARVAASASLSNMVLAPLQSMQQNQDPEVFVQPKVLSSAIPVAGAPLVTATTTAVSSVLLAPSVFQQTVTRSSDLERKASSPSPLTIGTPESQRKPSIILSKSQLQDTLIHLIKNDSSFLSTLHEVYLQVLTKNKDNHNL
B2: mRNA-decapping enzyme 1A (Homo sapiens), Q9NPI6 (parent)
chain: B1 chain
partner: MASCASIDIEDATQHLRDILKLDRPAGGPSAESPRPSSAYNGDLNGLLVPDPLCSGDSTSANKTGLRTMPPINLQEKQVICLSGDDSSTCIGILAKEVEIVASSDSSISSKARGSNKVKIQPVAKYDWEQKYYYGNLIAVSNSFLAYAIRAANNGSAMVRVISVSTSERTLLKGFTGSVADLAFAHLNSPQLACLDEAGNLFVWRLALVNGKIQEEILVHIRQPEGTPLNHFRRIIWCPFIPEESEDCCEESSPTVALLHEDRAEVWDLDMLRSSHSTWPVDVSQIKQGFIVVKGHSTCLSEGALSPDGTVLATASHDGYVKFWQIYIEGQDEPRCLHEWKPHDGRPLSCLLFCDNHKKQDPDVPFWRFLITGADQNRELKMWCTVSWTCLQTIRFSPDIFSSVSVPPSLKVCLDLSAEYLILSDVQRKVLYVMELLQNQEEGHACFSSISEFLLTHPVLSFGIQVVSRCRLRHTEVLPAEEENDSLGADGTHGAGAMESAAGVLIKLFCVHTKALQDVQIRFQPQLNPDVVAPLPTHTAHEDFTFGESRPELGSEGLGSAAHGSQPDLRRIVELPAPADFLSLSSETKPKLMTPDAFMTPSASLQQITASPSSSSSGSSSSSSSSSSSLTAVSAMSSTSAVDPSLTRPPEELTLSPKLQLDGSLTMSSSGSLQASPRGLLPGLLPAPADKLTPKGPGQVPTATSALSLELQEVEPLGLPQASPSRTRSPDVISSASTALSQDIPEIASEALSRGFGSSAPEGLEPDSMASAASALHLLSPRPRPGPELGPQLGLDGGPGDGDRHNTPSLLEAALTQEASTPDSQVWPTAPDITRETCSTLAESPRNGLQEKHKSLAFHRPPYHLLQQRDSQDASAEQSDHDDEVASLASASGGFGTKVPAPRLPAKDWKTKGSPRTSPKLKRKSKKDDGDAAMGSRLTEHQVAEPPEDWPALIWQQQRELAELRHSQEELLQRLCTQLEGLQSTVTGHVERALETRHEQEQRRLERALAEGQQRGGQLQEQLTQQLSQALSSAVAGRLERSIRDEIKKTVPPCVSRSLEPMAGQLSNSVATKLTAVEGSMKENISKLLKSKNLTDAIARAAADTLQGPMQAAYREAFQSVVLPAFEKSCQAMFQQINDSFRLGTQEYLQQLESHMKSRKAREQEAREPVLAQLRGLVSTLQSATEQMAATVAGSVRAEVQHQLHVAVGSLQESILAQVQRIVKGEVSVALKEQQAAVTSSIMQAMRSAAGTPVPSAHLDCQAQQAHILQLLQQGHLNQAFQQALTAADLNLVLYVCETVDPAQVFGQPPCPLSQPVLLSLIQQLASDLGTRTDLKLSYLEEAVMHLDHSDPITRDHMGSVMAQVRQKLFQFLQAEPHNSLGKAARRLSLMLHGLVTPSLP

Variants of: B1
Settings: with pnrc2_human PNRC2, Q9NPJ4
pnrc2_human PNRC2, Q9NPJ4, sequence (Q9NPJ4 whole entry): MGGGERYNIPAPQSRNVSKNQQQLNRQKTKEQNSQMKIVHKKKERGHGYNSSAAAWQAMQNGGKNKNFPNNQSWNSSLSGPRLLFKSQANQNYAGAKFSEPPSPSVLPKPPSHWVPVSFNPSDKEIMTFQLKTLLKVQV

| Variant | effect of a mutation on the interaction |
| --- | --- |
| R72G;N74G | with no effect |
| S12A;Q18A;H19A | with no effect |
| R72G;L73S;N74S;M75G | with no effect |

Variants of: B1
Settings: with dcp2_human DCP2, Q8IU60

| Variant | effect of a mutation on the interaction |
| --- | --- |
| R72G | with no effect |
| N74G | with no effect |
| L554S;F561R;L565S | disrupting interaction strength |
| R72G;L73S;N74S;M75G | with no effect |

Variants of: B1
Settings: with dcp2_human DCP2, Q8IU60
Remark: another data set of the same source

| Variant | effect of a mutation on the interaction |
| --- | --- |
| S12A;H19A | decreasing interaction strength |
| H19A | with no effect |
| S12A;Q18A;H19A | disrupting interaction strength |
| L554S;F561R;L565S | disrupting interaction strength |
| Q18A;H19A | decreasing interaction strength |

Variants of: B1
Settings: with dcp2_human DCP2, Q8IU60
Remark: another data set of the same source

| Variant | effect of a mutation on the interaction |
| --- | --- |
| L4E;A14Q | with no effect |

Variants of: B2
Settings: with edc4_human EDC4, Q6P2E9

| Variant | effect of a mutation on the interaction |
| --- | --- |
| S12A;Q18A;H19A | with no effect |
| H19A | with no effect |
| R72G | with no effect |
| R72G;L73S;N74S;M75G | with no effect |
| Q18A;H19A | with no effect |
| N74G | with no effect |
| S12A;H19A | with no effect |
| L554S;F561R;L565S | disrupting interaction strength |
